Reference: patent US20240124575A1 (SIMCERE ZAIMING PHARMACEUTICAL, published 2024)

Assays:
[1] = molecular target: T1, human CD33 on CHO-K1 cells (CHO-K1-human CD33) (human, UniProt P20138 18-364); test: FACS, CHO-K1-human CD33 cells
T1 construct: whole, on cells; stably transfected CHO-K1 clones; also called CHO-K1-hCD33-B8; CHO-K1-human CD33 B8
Experimental: The desired cells were expanded to a logarithmic growth phase in a T-75 cell culture flask. For adherent cells CHO-K1, the culture medium was removed by pipetting, and the cells were washed twice with a PBS buffer, digested with trypsin, and washed twice with a PBS buffer again after the digestion was stopped. For suspension cells U937, the medium supernatant was discarded by direct centrifugation, and the cell pellet was washed twice with PBS, and then incubated with a buffer containing human Fc Block (purchased from BD, Cat. No. 564220) for 15 min. After the cells obtained in the last step were subjected to cell counting, the cell pellet was resuspended to 2×10⁶ cells/mL with a blocking solution [PBS+2% (w/w) BSA] and added to a 96-well FACS reaction plate at 50 μL/well. The VHH-Fc antibody (a sample to be tested) was added at 50 μL/well, and the plate was incubated on ice for 2 h. […] After the plate was centrifuged and washed 5 times with a PBS buffer, the results were assayed and analyzed by FACS (FACS Canto™, purchased from BD Biosciences), so as to obtain the mean fluorescence intensity (MFI) of cells. Then, analysis was performed by software (GraphPad Prism8), data were fitted, and EC50 values were calculated.

[2] = molecular target: T2, monkey CD33-His protein (monkey); test: ELISA on coated monkey CD33-his
T2 construct: also called monkey CD33 protein

[3] = molecular target: T3, human CD33-His (extracellular domain Asp 18-His 259) (human, UniProt P20138 18-259); test: competitive ELISA vs coated C33B904 2ug/mL; soluble 25ug/ml
T3 construct: range 18-259; bought protein; also called hCD33-his; human CD33 protein; not shown: His tag
Experimental: (§1) VHH antibodies and control antibodies with known epitopes were subjected to epitope classification with competitive ELISA. ELISA plates were coated with 2 μg/mL antibodies according to the method in Example 5.1; the human CD33-his protein was subjected to a gradient dilution from 30 μg/mL, and EC80 values (Tables 26-27) were calculated. ELISA plates were coated with 2 μg/mL antibodies; after 25 µg/mL of antibodies to be tested were added, a human CD33-his protein having an EC80 concentration corresponding to each of the antibodies to be tested was then added for incubation for 2 h. The plates were washed 5 times with PBS, then HRP-labeled anti-His antibodies (purchased from GenScript, Cat. No. A00612) were added for incubation for 1 h, and the plates were washed 5 times. A TMB substrate was added at 50 μL/well and incubated at room temperature for 10 min, then a stop solution (1.0 M HCl) was added at 50 μL/well. OD_{450 nm} values were read using an ELISA plate reader (Insight, purchased from PerkinElmer), and the competition rate between the antibodies was calculated according to the OD_{450 nm} values using a formula. The results are shown in FIGS. 12A-12B, the higher the value of the competition rate, the closer the epitopes to which two antibodies bind.

[4] = molecular target: T3, human CD33-His (extracellular domain …); test: competitive ELISA vs coated S006-NB146-3 2ug/mL; soluble 25ug/ml
Experimental: as §1

[5] = molecular target: T4, human CD33-his protein (human, UniProt P20138 18-259); test: competition ELISA, coated human CD33-his, vs Biotin-C33B904 at EC80; antibody 0.49 nM
T4 construct: range 18-259; bought protein; also called hCD33-his; recombinant human CD33-his; not shown: His tag
Experimental: (§2) ELISA plates were coated with 2 μg/mL human CD33-his protein according to the method in Example 5.1; the Biotin-C331B904 antibody was subjected to a gradient dilution from 15 μg/mL, and EC80 values (0.18 μg/mL) were calculated. ELISA plates were coated with 2 μg/mL human CD33-his protein; starting from 40 μg/mL, the VHH antibodies to be tested were diluted in a 1:2 dilution ratio to obtain seven concentrations and added to the ELISA plates, and then Biotin-C331904 antibodies with the EC80 concentrations were added for incubation for 2 h. The plates were washed 5 times with PBS and then […] (purchased from Sigma, Cat. No. S2438) were added for incubation for 1 h, and the plates were washed 5 times. A TMB substrate was added at 50 μL/well and incubated at room temperature for 10 min, then a stop solution (1.0 M HCl) was added at 50 μL/well. OD_{450 nm} values were read using an ELISA plate reader (Insight, purchased from PerkinElmer). Then, analysis was performed by software (GraphPad Prism8), and data were fitted for curve plotting. The results are shown in FIGS. 13A-13B and Tables 28 and 29.

[6] = molecular target: T4, human CD33-his protein; test: competition ELISA, coated human CD33-his, vs Biotin-C33B904 at EC80; antibody 3.91 nM
Experimental: as §2

[7] = molecular target: T4, human CD33-his protein; test: competition ELISA, coated human CD33-his, vs Biotin-C33B904 at EC80; antibody 31.25 nM
Experimental: The plate was sealed with a plastic film and incubated at 4° C. overnight, washed twice with PBS the next day, and a blocking solution [PBS+2% (w/w) BSA] was added for blocking at room temperature for 2 h. The blocking solution was discarded, and VHH-Fc antibody or negative control antibody serially diluted from 100 nM was added at 50 μL/well. After incubation at 37° C. for 2 h, the plate was washed 3 times with PBS. A secondary antibody labeled with HRP (horseradish peroxidase) (purchased from Sigma, Cat. No. A0170) was added. After incubation for 1 h at 37° C., the plate was washed 5 times with PBS. A TMB substrate was added at 50 μL/well. After incubation at room temperature for 10 min, a stop solution (1.0 N HCl) was added at 50 μL/well. The OD450 nm values were read on an ELISA plate reader (Multimode Plate Reader, EnSight, purchased from Perkin Elmer). The assay results for the binding of the VHH-Fc to hCD33-his by ELISA are shown in FIGS. 7A and 7B and Tables 11 and 12. […] The IgG control was hIgG1, and the data in the table are OD450 nm values.
ELISA plates were coated with 2 μg/mL human CD33-his protein according to the method in Example 5.1; the Biotin-C331B904 antibody was subjected to a gradient dilution from 15 μg/mL, and EC80 values (0.18 μg/mL) were calculated. […] OD_{450 nm} values were read using an ELISA plate reader (Insight, purchased from PerkinElmer). […]

T4 sequence (P20138 18-259 limits assumed): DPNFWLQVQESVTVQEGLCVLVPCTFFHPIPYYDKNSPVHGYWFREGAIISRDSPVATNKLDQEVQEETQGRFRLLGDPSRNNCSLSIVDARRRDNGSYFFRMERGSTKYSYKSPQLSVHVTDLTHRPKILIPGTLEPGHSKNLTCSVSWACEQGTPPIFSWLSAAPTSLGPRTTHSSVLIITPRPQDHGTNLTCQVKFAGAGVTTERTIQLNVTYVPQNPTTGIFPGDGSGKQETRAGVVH
T1 sequence (P20138 18-364): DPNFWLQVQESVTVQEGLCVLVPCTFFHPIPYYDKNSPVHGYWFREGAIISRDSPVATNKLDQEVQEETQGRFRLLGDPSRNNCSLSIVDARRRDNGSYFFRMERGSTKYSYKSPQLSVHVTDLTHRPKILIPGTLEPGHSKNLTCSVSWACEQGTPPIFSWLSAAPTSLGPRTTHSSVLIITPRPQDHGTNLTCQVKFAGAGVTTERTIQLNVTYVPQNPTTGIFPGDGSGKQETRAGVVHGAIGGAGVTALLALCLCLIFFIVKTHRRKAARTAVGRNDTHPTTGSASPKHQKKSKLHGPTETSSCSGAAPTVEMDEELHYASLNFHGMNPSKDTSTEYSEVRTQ
T3 sequence (P20138 18-259 limits assumed): as the sequence (P20138 18-259 limits assumed) above

Binder	EC50 [1] [nM]	Max MFI [1] [MFI]	EC50 (read off the curve) [2] [nM]	inhibition rate [3] [%]	inhibition rate [4] [%]	OD450 (Biotin-C33B904 signal) [5]	OD450 (Biotin-C33B904 signal) [6]	OD450 (Biotin-C33B904 signal) [7]
C33B904 hIgG1 (antibody, V domains shown, intact human IgG1; variable regions from US20190382481A1; also called C33B3904; C331B904) VH: EVQLVESGGGLVQPGRSLRLSCAASGFTFDDYAMHWVRQAPGKGLEWVSGIGWSGGSIVYADSVKGRFTISRDNAKNSLYLQMNSLRAEDTALYYCAKDSPYGDFFDYWGQGTLVTVSS VL: DIVMTQSPDSLAVSLGERATINCKSSQTVFYSSNNKNYLAWYQQKPGQPPKLLISWASTRKSGVPDRFSGSGSGTDFTLTVSSLQAEDVAVYYCQHYYSTPYTFGQGTKLEIKR	4.53	12400	~0.3	88	-9	–	–	–
C33B904 (antibody, human IgG1, kappa, V domains shown, control antibody, intact human IgG1 form; variable regions from US20190382481A1; also called C33B904 hIgG1; C331B904) VH: EVQLVESGGGLVQPGRSLRLSCAASGFTFDDYAMHWVRQAPGKGLEWVSGIGWSGGSIVYADSVKGRFTISRDNAKNSLYLQMNSLRAEDTALYYCAKDSPYGDFFDYWGQGTLVTVSS VL: DIVMTQSPDSLAVSLGERATINCKSSQTVFYSSNNKNYLAWYQQKPGQPPKLLISWASTRKSGVPDRFSGSGSGTDFTLTVSSLQAEDVAVYYCQHYYSTPYTFGQGTKLEIKR	–	–	–	–	–	2.26	1.77	0.46
